Key:
Assay in all cases: EMSA
[1] = biological target: NS1 (89-237) effector domain;eIF4E;eIF4G1 (88-653) (Influenza A virus (H3N2);human;human, UniProt P03495;P06730;Q04637 89-237;1-217;88-653, ||)
eIF4E;eIF4G1 (88-653) = eIF4E;eIF4G1 (88-653) (human;human, UniProt P06730;Q04637 1-217;88-653, |)
[2] = biological target: NS1 (89-237) effector domain (Influenza A virus (H3N2), UniProt P03495 89-237)
Chain of NS1 (89-237) effector domain (P03495 89-237): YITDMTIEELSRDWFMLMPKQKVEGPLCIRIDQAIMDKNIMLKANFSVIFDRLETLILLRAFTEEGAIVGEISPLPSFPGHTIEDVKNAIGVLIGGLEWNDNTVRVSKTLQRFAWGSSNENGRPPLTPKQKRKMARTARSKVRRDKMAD

Chain of NS1 (89-237) effector domain;eIF4E;eIF4G1 (88-653) (P03495 89-237, chain 1 of 3): as the sequence (P03495 89-237) above
Chain of NS1 (89-237) effector domain;eIF4E;eIF4G1 (88-653) (P06730 whole entry, chain 2 of 3, the tested form may be a part): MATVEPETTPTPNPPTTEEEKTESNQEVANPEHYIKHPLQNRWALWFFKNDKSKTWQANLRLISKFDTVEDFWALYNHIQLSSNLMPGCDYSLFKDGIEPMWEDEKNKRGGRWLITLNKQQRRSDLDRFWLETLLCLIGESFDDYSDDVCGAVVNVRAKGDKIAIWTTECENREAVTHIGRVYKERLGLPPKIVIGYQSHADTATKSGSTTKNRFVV
Chain of NS1 (89-237) effector domain;eIF4E;eIF4G1 (88-653) (Q04637 88-653, chain 3 of 3): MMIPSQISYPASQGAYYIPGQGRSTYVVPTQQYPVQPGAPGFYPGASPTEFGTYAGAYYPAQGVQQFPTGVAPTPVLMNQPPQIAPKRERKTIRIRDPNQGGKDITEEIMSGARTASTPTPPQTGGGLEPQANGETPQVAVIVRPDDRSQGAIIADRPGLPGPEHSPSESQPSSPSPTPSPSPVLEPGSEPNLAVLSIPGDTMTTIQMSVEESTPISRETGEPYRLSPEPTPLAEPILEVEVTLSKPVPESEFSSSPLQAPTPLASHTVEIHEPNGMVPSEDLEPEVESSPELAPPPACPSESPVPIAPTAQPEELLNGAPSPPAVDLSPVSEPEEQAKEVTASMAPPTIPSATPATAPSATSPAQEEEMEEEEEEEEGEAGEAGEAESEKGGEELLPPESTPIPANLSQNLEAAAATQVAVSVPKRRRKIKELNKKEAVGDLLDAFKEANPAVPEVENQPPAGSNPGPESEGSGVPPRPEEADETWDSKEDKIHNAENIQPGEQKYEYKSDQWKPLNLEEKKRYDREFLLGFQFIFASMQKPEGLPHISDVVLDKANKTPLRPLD
Chain of eIF4E;eIF4G1 (88-653) (P06730 whole entry, chain 1 of 2, the tested form may be a part): as the sequence (P06730 whole entry, chain 2 of 3, the tested form may be a part) above
Chain of eIF4E;eIF4G1 (88-653) (Q04637 88-653, chain 2 of 2): as the sequence (Q04637 88-653, chain 3 of 3) above

## GGGUGACAGUCCUGUUU (ssRNA, 5' m7G cap (vaccinia capping)) [5'-m7G-mRNA]
[1]
  binding result: binds
eIF4E;eIF4G1 (88-653)
  binding result: binds
[2]
  binding result: no binding

From PMC10164398
